Source: paper PMC9250508 (2022)

Target: D614G RBD
Assay: BLI

B1: AZD1061 Fab (Fab, V domains shown)
VH: EVQLVESGGGLVKPGGSLRLSCAASGFTFRDVWMSWVRQAPGKGLEWVGRIKSKIDGGTTDYAAPVKGRFTISRDDSKNTLYLQMNSLKTEDTAVYYCTTAGSYYYDTVGPGLPEGKFDYWGQGTLVTVSS
VL: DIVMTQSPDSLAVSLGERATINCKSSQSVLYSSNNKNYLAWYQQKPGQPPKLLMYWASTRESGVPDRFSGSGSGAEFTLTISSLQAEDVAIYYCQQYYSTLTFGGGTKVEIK
  Kd: 14.5 nM
  koff: 0.00217 s⁻¹

B2: AZD8895 Fab (Fab, V domains shown)
VH: QMQLVQSGPEVKKPGTSVKVSCKASGFTFMSSAVQWVRQARGQRLEWIGWIVIGSGNTNYAQKFQERVTITRDMSTSTAYMELSSLRSEDTAVYYCAAPYCSSISCNDGFDIWGQGTMVTVSS
VL: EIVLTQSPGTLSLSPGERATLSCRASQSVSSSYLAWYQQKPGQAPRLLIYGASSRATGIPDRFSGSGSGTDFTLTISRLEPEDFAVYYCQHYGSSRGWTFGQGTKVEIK
  Kd: 9.79 nM
  koff: 0.00603 s⁻¹
